Test [1] deals with SNF2H (UniProt O60264). Kind of test: HA immunoprecipitation and mass spectrometry. The note with it: PC3 cells; average of three independent experiments; parent: est. 35; read off a plot.
Test [2] concerns the target DHX9 (UniProt Q08211). In words: HA immunoprecipitation and mass spectrometry. To be noted: PC3 cells; average of three independent experiments; parent: est. 32; read off a plot.
Chain of UniProt Q08211 (Q08211 whole entry): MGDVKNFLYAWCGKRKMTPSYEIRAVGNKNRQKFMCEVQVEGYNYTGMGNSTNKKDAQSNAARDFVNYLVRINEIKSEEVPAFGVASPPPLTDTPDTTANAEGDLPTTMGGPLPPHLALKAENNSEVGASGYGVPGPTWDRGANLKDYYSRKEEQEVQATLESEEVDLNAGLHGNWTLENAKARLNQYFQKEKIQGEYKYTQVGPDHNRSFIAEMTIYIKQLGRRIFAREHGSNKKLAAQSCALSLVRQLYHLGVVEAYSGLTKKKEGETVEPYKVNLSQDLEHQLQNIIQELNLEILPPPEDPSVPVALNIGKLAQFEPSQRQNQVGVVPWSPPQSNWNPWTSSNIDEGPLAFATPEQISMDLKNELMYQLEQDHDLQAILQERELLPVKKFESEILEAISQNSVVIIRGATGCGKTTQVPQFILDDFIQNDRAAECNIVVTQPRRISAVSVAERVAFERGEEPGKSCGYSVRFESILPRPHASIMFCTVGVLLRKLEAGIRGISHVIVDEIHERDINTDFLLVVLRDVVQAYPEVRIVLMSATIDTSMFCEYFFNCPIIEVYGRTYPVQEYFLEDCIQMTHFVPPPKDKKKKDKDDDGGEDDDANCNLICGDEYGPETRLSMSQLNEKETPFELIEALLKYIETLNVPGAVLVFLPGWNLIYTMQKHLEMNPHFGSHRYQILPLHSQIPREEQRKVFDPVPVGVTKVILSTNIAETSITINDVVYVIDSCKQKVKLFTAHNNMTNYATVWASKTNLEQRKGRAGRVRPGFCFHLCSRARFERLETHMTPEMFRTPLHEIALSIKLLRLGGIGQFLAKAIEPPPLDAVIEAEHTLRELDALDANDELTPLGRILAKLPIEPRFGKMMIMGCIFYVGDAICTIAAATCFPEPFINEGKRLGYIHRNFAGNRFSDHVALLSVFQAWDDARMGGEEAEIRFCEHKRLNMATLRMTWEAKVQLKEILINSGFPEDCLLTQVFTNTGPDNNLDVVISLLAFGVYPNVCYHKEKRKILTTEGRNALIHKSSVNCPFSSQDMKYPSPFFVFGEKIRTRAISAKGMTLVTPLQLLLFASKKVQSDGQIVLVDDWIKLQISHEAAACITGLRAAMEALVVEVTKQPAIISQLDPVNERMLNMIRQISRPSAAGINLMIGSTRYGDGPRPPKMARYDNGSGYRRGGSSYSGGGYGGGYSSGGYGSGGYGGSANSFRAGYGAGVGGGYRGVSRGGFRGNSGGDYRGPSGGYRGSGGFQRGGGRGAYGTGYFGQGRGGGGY

Chain of UniProt O60264 (O60264 whole entry): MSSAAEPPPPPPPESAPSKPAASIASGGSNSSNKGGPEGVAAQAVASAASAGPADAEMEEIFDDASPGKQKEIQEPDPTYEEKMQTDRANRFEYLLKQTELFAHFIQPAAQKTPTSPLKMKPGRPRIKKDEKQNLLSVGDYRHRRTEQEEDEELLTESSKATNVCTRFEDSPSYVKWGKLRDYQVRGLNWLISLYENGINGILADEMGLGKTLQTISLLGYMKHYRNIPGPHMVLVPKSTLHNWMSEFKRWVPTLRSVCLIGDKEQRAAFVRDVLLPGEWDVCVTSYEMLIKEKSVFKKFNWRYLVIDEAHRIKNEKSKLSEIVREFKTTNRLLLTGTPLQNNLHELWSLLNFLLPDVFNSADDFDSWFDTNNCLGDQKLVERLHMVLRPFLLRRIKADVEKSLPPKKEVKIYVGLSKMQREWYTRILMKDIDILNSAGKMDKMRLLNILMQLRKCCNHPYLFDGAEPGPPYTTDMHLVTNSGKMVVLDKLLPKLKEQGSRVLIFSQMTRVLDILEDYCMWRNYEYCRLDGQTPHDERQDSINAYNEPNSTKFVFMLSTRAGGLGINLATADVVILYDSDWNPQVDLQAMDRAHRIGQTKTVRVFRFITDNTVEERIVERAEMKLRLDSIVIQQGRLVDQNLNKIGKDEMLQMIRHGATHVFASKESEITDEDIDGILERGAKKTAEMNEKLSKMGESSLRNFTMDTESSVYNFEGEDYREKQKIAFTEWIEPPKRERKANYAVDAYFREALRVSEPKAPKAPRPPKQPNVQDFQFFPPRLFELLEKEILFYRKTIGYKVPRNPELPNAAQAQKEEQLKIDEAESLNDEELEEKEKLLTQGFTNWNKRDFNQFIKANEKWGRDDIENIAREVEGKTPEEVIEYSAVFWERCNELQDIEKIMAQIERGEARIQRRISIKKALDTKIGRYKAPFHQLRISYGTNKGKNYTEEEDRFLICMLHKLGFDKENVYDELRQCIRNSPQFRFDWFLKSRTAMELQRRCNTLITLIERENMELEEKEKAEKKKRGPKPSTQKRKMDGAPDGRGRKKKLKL

As for “HA-FLAG-tagged mouse WT BAZ2A (from UniProt Q91YE5) W531G; Y532A”, the response (peptides number) in test [1] amounted to 32; in test [2], 36.
